This experiment has as its target wild-type Rattus norvegicus GABA transporter 1 (rGAT1WT) (Rattus norvegicus, UniProt P23978). The settings on record: one partner purified.

B1: Fab 9D5 (Fab, V domains shown)
VH: EVQLVESGGGLVKPGGSLKLSCAASGFTFSSYAMSWVRQSPEKRLEWVAEISSGGRYIYYSDTVTGRFTISRDNARNILHLEMSSLRSEDTAMYYCARGEVRQRGFDYWGQGTTLTVSS
VL: ENVLTQSPAIMSTSPGEKVTMTCRASSSVGSSYLHWYQQKSGASPKLWIYSTSNLASGVPARFSGSGSGTSYSLTISSVEAEDAATYYCQQFSGYPLTFGSGTKLEMK
notes: heavy chain of Fab 9D5; light chain of Fab 9D5; Heavy and light chains were synthesized and cloned into pFastBac Dual with an N-terminal GP64 signal peptide; Only VH and VL are modeled in PDB 8GNK; also called 9D5 Fab; 9D5-Fab; source: Sf9 cells, baculovirus, exported into the media; purified (Ni-NTA, SEC on Superdex 75)
B1: the binding result is “no binding (tested: 50 ng of 9D5)”.

For the origin of these results see PMC10352132 (Nature Structural & Molecular Biology, 2023).
